Laboratory results: the supplement of paper PMC12764529
± gives the half width of the 95% confidence interval.

Assays:
[1] = folding stability dG unfold from trypsin proteolysis; higher = more stable
Outline: (§1)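 Unfolding free energy was derived, per protease or combined, by relating Bayesian-fitted K50 values from sequencing counts to a sequence-predicted unfolded-state K50 and a shared folded-state K50. The underlying digests exposed cysteine-free mini-proteins under 80 residues, in a PA-tagged cDNA display construct, to trypsin and chymotrypsin at 11 threefold-diluted concentrations and to a no-protease condition. A filter kept only designs with AlphaFold2 dimer inter-PAE above 15.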

[2] = folding stability dG unfold from chymotrypsin proteolysis; higher = more stable
Outline: as §1

[3] = folding stability dG unfold (combined trypsin and chymotrypsin); higher = more stable
Outline: as §1

Sequence | folding stability dG unfold [1] [kcal/mol] | folding stability dG unfold [2] [kcal/mol] | folding stability dG unfold [3] [kcal/mol]
SAGGSAGGSAGGSEELLKKNPNYIIVKKVEKVLEAKTPSGKKYTIKTTIYIITKPNELPSAGGSAGGSAGGS [r10_0_JUSTAS] | 1.52 ± 0.099 | 2.13 ± 0.14 | 1.84 ± 0.21
SAGGSAGGSAGGSEKEVEISVVLPDGYVLRVRVREVSEDGEEVEVEVELVKVKPGQKLLSAGGSAGGSAGGS [r4_72_TrROS_Hall] | 1.57 ± 0.051 | 1.37 ± 0.079 | 1.5 ± 0.15
SAGGSAGGSAGGSEKKITVYKDKNGNYLVVIEKGDKPIVIPFPKGASLKEALDIIDKLDSAGGSAGGSAGGS [r4_7_TrMRF] | 1.95 ± 0.095 | 2.64 ± 0.051 | 2.41 ± 0.14
SAGGSAGGSAGGSFGAVKARFKVEFVARAEDGSLYPVELEFEVEVPVLPPLPFLHPDLFSAGGSAGGSAGGS [r4_325_TrMRF] | 1.86 ± 0.051 | 2.35 ± 0.038 | 2.18 ± 0.068
SAGGSAGGSAGGSFTIASVETIRQPNGEILYRITLKFPDGTVEEVLEVPESEAGKVLSSLSAGGSAGGSAGG [r7_891_JUSTAS] | 3.23 ± 0.12 | 3.333 ± 0.025 | 3.3 ± 0.07
SAGGSAGGSAGGSGAEELAKKLQEKLEELGLEAEITVEYDEETNELTITITVDGKEYEFSAGGSAGGSAGGS [r4_312_TrROS_Hall] | 2.24 ± 0.13 | 1.74 ± 0.063 | 1.94 ± 0.06
SAGGSAGGSAGGSGAGTLITVTVGGKEVPVTVDPSSDRVSITLPEPTSLTLSVEDPARASAGGSAGGSAGGS [r10_1185_JUSTAS] | 0.593 ± 0.1 | -0.602 ± 0.3 | 0.208 ± 0.17
SAGGSAGGSAGGSGGSARIEVERLPDGLVLLRIYDPETGEEIEIPMPPDLARSFVFLNGSAGGSAGGSAGGS [r4_494_TrMRF] | 0.471 ± 0.026 | 1.51 ± 0.085 | 1.11 ± 0.045
SAGGSAGGSAGGSGKLYYIVVELPNGEKISLLVESPEGAIELLEKLNYPVVKAEFFPISSAGGSAGGSAGGS [r4_213_TrMRF] | 2.29 ± 0.091 | 3.09 ± 0.055 | 2.84 ± 0.12
SAGGSAGGSAGGSGMITVTIEREYTSYVTFPGGTLEPVLLKTTVTATLPPGVPVEEFLSSAGGSAGGSAGGS [r4_126_JUSTAS] | 1.65 ± 0.058 | 1.37 ± 0.12 | 1.54 ± 0.11
SAGGSAGGSAGGSGMSVKREVLEVEEFPGPGRVVRVLERVTLPDGTELLREIEEVIDLLSAGGSAGGSAGGS [r4_50_JUSTAS] | 0.219 ± 0.068 | 1.12 ± 0.049 | 0.871 ± 0.058
SAGGSAGGSAGGSGMVEVVSPDLSPEELKERIRKELGDPSVKVEVTTLSDGTQLARVPASAGGSAGGSAGGS [r4_408_JUSTAS] | -1.74 ± 0.72 | -0.0859 ± 0.061 | -0.365 ± 0.12
SAGGSAGGSAGGSGNYVPGPSLVTFYDPKTNKWTVVKSAPEEAVKLKASLPENVAKISLSAGGSAGGSAGGS [r4_282_JUSTAS] | -0.237 ± 0.21 | -0.0321 ± 0.27 | -0.179 ± 0.32
SAGGSAGGSAGGSGQEIPFMLIIKDPDGELDYIIQIEMRRVPNGGVDIEITEIIPAKDISAGGSAGGSAGGS [r4_117_TrROS] | 1.55 ± 0.1 | 1.76 ± 0.039 | 1.77 ± 0.1
SAGGSAGGSAGGSGYTVKITLKNPDGTESTITISGTGSKEEIINSIKKKYPNNVTKVIESAGGSAGGSAGGS [r4_412_JUSTAS] | 1.37 ± 0.16 | 1.94 ± 0.069 | 1.53 ± 0.31
